Measurements as given in PMC9882245.

Target: NLuc-CLR:RAMP3 (N-terminally nanoluciferase-tagged CLR co-expressed with RAMP3; AM2 receptor) (human) (UniProt Q16602)
Assay: FRET or BRET

NLuc-CLR:RAMP3 (N-terminally nanoluciferase-tagged CLR co-expressed with RAMP3; AM2 receptor) (human), sequence (Q16602 23-461, chain 1 of 2): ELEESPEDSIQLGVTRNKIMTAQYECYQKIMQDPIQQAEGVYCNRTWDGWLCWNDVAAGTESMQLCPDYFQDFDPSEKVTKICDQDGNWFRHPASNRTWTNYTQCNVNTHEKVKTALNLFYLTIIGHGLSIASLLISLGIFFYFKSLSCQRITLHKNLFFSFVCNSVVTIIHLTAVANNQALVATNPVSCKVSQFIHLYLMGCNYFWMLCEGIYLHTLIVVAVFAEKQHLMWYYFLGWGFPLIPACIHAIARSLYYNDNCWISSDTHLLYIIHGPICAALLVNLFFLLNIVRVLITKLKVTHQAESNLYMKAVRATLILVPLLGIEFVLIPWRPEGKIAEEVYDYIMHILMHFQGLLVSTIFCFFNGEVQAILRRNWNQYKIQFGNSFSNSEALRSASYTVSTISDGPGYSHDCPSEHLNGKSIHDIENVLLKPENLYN
NLuc-CLR:RAMP3 (N-terminally nanoluciferase-tagged CLR co-expressed with RAMP3; AM2 receptor) (human), sequence (O60896 24-148, chain 2 of 2, further chain): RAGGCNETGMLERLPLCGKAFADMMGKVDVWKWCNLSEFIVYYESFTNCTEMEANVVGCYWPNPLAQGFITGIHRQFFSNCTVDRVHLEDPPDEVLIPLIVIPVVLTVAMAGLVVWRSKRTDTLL

Work on “AM2/IMD-TAMRA (adrenomedullin 2/intermedin labeled with TAMRA on a Lys substituted at D35) (peptide)” yielded a Kd of 7 nM, a dissociation half-life, fast component of 7 min and a dissociation half-life, slow component of 76 min. The half-life (t1/2) from the off-rate of the association kinetics analysis was 21 min.
Work on “AM-TAMRA (adrenomedullin labeled with TAMRA on a Lys substituted at N40) (peptide)” yielded a Kd of 26 nM, a dissociation half-life, fast component of 0.75 min and a dissociation half-life, slow component of 6.9 min. The half-life (t1/2) from the off-rate of the association kinetics analysis was 2.5 min.
